# From publication PMC11322631
# Several values for one entry are separate records, joined by “and”; a condition that tells them apart may be missing. Equal entries are not always repeated.
# What was measured:
# [1] = biological target: proteoopsin, retinal-free N-terminally truncated green-light absorbing proteorhodopsin lacking the signal peptide (marine γ-proteobacteria); assay: cryo-EM structure; single particle cryo-EM of purified oligomers in 20 mM BTP-HCl pH 7.5, 150 mM NaCl, 0.25% Cymal-5; GPR-A18L at 4.2 mg/mL, PO at 4.0 mg/mL
# [2] = biological target: green-light absorbing proteorhodopsin A18L variant with uncleavable N-terminal signal peptide (marine γ-proteobacteria); assay: native gel or EMSA; BN-PAGE, NativePAGE 4-16% Bis-Tris gel, about 5 µg protein, 0.4% Cymal-5 and 0.25% Coomassie G-250 in the sample, run in ice water
# [3] = biological target: green-light absorbing proteorhodopsin A18L variant with uncleavable N-terminal signal peptide (marine γ-proteobacteria); assay: cryo-EM structure; single particle cryo-EM of purified oligomers in 20 mM BTP-HCl pH 7.5, 150 mM NaCl, 0.25% Cymal-5; GPR-A18L at 4.2 mg/mL, PO at 4.0 mg/mL
Substance,stoichiometry N [1],stoichiometry N [2],stoichiometry N [3]
"proteoopsin, retinal-free N-terminally truncated green-light absorbing proteorhodopsin lacking the signal peptide (natural protein)",5,,
green-light absorbing proteorhodopsin A18L variant with uncleavable N-terminal signal peptide (natural protein),,5 and 6,5 and 6
